The stoichiometry N is a count of units in the complex or per binding partner.

This experiment deals with T1, SuhB (inositol mono-phosphatase SuhB), wild type (E. coli), P0ADG4.
T1 chain: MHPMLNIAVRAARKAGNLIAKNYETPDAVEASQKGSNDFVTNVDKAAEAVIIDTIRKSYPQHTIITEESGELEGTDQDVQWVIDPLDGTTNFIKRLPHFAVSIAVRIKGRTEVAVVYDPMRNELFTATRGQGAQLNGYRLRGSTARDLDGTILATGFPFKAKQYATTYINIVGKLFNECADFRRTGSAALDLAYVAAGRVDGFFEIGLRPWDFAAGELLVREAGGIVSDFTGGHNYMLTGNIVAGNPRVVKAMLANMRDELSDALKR
Description: SEC-MALS; 60 μl (15 nmol) of SuhB on Superdex 200 increase 10/300; 20 mM HEPES pH 7.5, 50 mM NaCl, 0.02% (w/v) NaN3. The settings on record: remark: other sources report otherwise. For orientation: SEC sorts molecules by how far they enter the pores of the column.

B1: SuhB (inositol mono-phosphatase SuhB), wild type, P0ADG4 1-267 (natural protein)
chain: T1 chain
The molecule B1 registered a stoichiometry N of 2.

These data come from article PMC6614801.
